B1: TPR t1 (parent)
chain: GACCAAUCUGCCCUCAGAGCUCGAGAACAUCUUCGGAUGCAGAGGAGGCAGGCUUCGGUGGCGCGAUAGCGCCAACGUCCUCAACCUCCAAUGCAUCCCACCACAUGAUGAUGCCUGAAGAGCCUUGGUUUUUUG

Variants of: B1
Assay: polymerase ribozyme fitness, log enrichment relative to wild type (log ratio); higher = more active; in vitro selection for triplet polymerase activity
Procedure, shortened: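 Mutant libraries were PCR-built and transcribed for each subunit of a heterodimeric triplet polymerase ribozyme and selected for one round in triplicate at −7 °C, frozen, before gel excision of extended constructs and streptavidin-bead capture. Input and output libraries were Illumina-sequenced, keeping genotypes with ≥10 input reads and ≥1 read per output. Fitness is a logarithmic ratio of genotype to wild-type enrichment, in base 2, using inverse-variance-weighted replicate averages.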

Variant	polymerase ribozyme fitness (log ratio)
C97A	-4.67
U14A A46C C70A U112A A119G G122C	-2.7
C28U C56U	-1.85
U81A A91U C101U	-3.43
G61A C72U G77U	-0.134
C97U U129A	-2.18
C15U C28U A68G G110A	-2.39
A6G A41G U87A G110A U125G	-3.92
G52C G58A C79A C85U	-2.78
C80U C94U	-0.851
C15U A105U	-3.42
U21C C22A A43C	-4.05
A83C C114G U132A	-2.52
A50C A90C U133G	-1.46
G60U C80U C123A	-1.11
G36A C70U	-1.06
U21G C56U	-1.08
G63C C85A	-3.22
C8G C11U	1.67
C11A C40G G42A G71A	-4.67
U9G G120A U130A	1.11

Variant	polymerase ribozyme fitness (log ratio)
C72A C82G C115A C123A	-1.36
C15A U109A	-5.42
G45U C115U	-2.6
A5U G19A A41U C94A C104U	-3.89
C22G G35C C64U	-6.13
C56U U116A	-2.51
C3A C104U	-0.516
U38G G52A C62U C114A	-3.2
C15G C49U U78A U125G	-3.37
A5C C62U	-0.355
G52U G61A	-1.14
C8A C13G G60C A90U U109G A119U	-6.32
A27G C53G	-1.84
U78A G117A G128C	-5.04
C11A U55G C80U C104U G113A	-4.77
C20U U30A G39C C53U C56U G60C U92C G117U A119G	-6.79
G48U C70U	-1.39
U7C C72U	0.588
C53U C73G G113C	-4.51
A46G G113A	-1.46
C82U C115A	-0.595

Variant	polymerase ribozyme fitness (log ratio)
C64U C115A U125A	-0.872
C11A G36U G77C	-3.38
C11U G48A G61A C86G	-1.75
C53U G71A C73A G77C C80U	-6.09
A5U C70G A119G	-0.737
A6C U7G A29G G48C G61A A95C	-2.21
C88G G107U A111C A121U U125A	-3.56
C62A U87G U106G	-2.77
G69C C101G	-3.84
C56A C104G A118G C124G	-5.79
A5C C15G U54G C89U U116G G117A C124G	0.693
A18U G57U A100C G120C	-5.42
C98A U112G	-5.66
C3A U78C	-0.717
U7C C62U G120A G128A	0.578
G48A G61A	-0.0923
A46G C70A	-1.26
C8G C13U G47C	-0.248
C22U G51A	-4.81
C8A G69U	0.656
A68G C82U	-2.87

Variant	polymerase ribozyme fitness (log ratio)
C12U C22U U59C C85G	-4.46
C56U A105U	-2.17
G60A C89U	-0.18
C8G G45C G51U G65A G113U C123U	-7.22
C11U A27U G120A U132A	-1.47
A27G C49U C123A	-1.76
C28G C73U C97U	-3.34
U9C A43U C73U C79U A111G	-0.526
G60A U92A	-3.24
G17U C49U G93A	-4.22
A103U U132A	-5.02
A46G U112A	1.3
G61A U92A C123A G127U	-1.55
A50G G60A	0.351
U81C C82A C98U	-3.03
C85A U112A C115U U130C	-2.28
U21C A74U G120A	-0.17
G35U U67C U109A C115U	-5.63
G17A C53A A90G A95U	-3.77
U14C C22U U32C	-5.53

Reference: the RNAGym collection of RNA variant scans (doi:10.1073/pnas.2313332121)
